The target in one experiment is T1, FITC-human albumin (human, UniProt P02768 25-609, FITC label (site not stated)).
T1 construct: also called fluorescein isothiocyanate (FITC)-labeled albumin; FITC-albumin
The experiment can be described thus: in vitro albumin binding assay, protocol of Example 7.

Experiment [1] has as its target T2, human serum albumin (labelled with Alexa Fluor 488) (human, UniProt P02768 25-609, Alexa Fluor 488 label (site not stated)).
T2 construct: Used at 80 µg/ml in the Optiprep gradient / dot-blot assays; also called HSA
As to the kind of experiment: Optiprep gradient and dot-blot of 4e10 HEK EVs incubated with 80 µg/ml Alexa Fluor 488 HSA. Here is the method: This experiment was performed by incubating overnight at 4° C. 4e¹⁰ HEK EVs expressing the constructs detailed above with 80 µg/ml human serum albumin (labelled with Alexa Fluor 488) and a mix of tetraspanin antibody. The next day, EVs were separated by Optiprep gradient ultracentrifugation and 300 µl fractions were collected, 100 µl from each fraction were used for DOTBLOT analysis and 50 µl from three subsequent fractions were pulled and used for imaging (widefield and dSTORM) […] (CD9, CD63 and CD81, 1:100) labelled with Alexa […].

The target of experiment [2] is T2, human serum albumin (labelled with …). As to the kind of experiment: Optiprep gradient ultracentrifugation and dot-blot of EVs incubated with Alexa Fluor 488 HSA. The method, then:
Gradient separation was performed to assess the binding of albumin to EVs expressing ABD on the surface. The fusion constructs tested were: [0235] mCD63-Nluc (concentration: 1.37×10¹² particles/ml) [0236] mCD63-ABD-2nd loop Nluc (concentration: 6.5×10¹¹ particles/ml)
HEK EVs with albumin binding domain fused to different or both CD63 loops were incubated overnight at 4° C. 5 µl with 80 µg/ml human serum albumin (labelled with Alexa Fluor 488) and a mix of tetrspanin antibodies (CD9, CD63 and CD81, 1:100) labelled with Alexa Fluor 647. The next day, EVs were separated by Optiprep gradient ultracentrifugation and 300 µl fractions were collected, 100 µl from each fraction were used for DOTBLOT analysis and 50 µl from three subsequent fractions were pooled and used for imaging (widefield and dSTORM)

In the next experiment the target is T3, mouse serum albumin (mouse, UniProt P07724 25-608).
T3 construct: Albumin picked up by the EVs in the circulation of the mice
As to the kind of experiment: EVs recovered from mouse serum 10 min after injection, gradient separation and dot-blot with anti-mouse serum albumin antibody. The method, then: Mice were injected with mCD63-ABD-2nd loop Nluc HEK EVs or mCD63-Nluc (no ABD control). Serum was collected 10 minutes after injection and purified with size-exclusion columns (qEV) to isolate EVs. 2.5×10¹⁰ EVs were then incubated overnight at 4° C. with an antibody anti-mouse serum albumin (labelled with FITC) and a mix of tetraspanin antibodies (human specific CD9, CD63 and CD81, 1:100) labelled with Alexa Fluor 647. The next day, EVs were separated by Optiprep gradient ultracentrifugation and 300 µl fractions were collected, 100 µl from each fraction were used for DOTBLOT analysis and 50 µl from three subsequent fractions were pulled and used for imaging (widefield)

T2 sequence (P02768 25-609 limits assumed): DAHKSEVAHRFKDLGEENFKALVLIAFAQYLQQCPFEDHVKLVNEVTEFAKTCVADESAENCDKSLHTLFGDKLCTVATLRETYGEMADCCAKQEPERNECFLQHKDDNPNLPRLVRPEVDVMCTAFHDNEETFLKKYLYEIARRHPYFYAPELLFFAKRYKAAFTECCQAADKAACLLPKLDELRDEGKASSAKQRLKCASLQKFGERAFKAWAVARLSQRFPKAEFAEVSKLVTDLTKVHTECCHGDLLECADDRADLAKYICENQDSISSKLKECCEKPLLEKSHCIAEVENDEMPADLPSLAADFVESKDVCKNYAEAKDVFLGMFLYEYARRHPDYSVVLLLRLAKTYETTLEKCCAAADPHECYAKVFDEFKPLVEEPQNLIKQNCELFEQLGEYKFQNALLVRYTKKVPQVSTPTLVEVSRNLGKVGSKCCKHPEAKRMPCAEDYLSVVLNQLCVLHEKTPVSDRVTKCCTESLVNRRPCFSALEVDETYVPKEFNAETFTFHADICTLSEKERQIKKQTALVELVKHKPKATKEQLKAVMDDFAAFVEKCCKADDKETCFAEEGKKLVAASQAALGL
T1 sequence (P02768 25-609 limits assumed): as above

B1: Lamp2b-ABD-NanoLuc (other)
chain: LKFEQHDEAVDANSLAEAKVLANRELDKYGVSDFYKRLINKAKTVEGVEALKLHILAALPFETGGAPMHISQAVHAAHAEINEAGRSIINFEKLCTSVYDFFVWLGRGHLLGRLAAIVGKQVLLGRKVVVVRSHCHWNDLAVIPAGVVHNWDFEPRKVSPSKPSFQEFVDWENVSPELNSTDQPFLCTGSGSGSGSGSLKPAGILIPIIVGAGLSGLIIVIVIAYVIGRRKSYAGAQTLGGGGSYIPEAPRDGQAYVRKDGEWVLLSTFLSPANGTPTPTPTPTGRSLYPSLEDLKVDKVIQAQTAFSANPANPAILSEASAPIPHDGNLYPRLYPELSQYMGLSLEGGQLGTPTPTPTPTGGSVFTLEDFVGDWRQTAGYNLDQVLEQGGVSSLFQNLGVSVTPIQRIVLSGENGLKIDIHVIIPYEGLSGDQMGQIEKIFKVVYPVDDHHFKVILHYGTLVIDGVTPNMIDYFGRPYEGIAVFDGKKITVTGTLWNGNKIIDERLINPDGSLLFRVTINGVTGWRLCERILA
notes: also called Lamp2B-ABD-Nluc; Lamp2b-ABD-Nluc
B1: the binding result (with FITC-human albumin; in experiment [1]) was “binds” each time.

B2: mCD63-NanoLuc (other)
chain: MAVEGGMKCVKFLLYVLLLAFCACAVGLIAIGVAVQVVLKQAMHITHETTAGSLLPVVIIAVGAFLFLVAFVGCCGACKENYCLMITFAIFLSLIMLVEVAVAIAGYVFRDQVKSEFNKSFQQQMQNYLKDNKTATILDKLQKENNCCGATRSNYTDWENIPGMAKDRVPDSCCINITVGCGNDFKESTIHTQGCVETIAIWLRKNILLVAAAALGIAFVEVLGIIFSCCLVKSIRSGYEVMGSGSGSGSGSVFTLEDFVGDWRQTAGYNLDQVLEQGGVSSLFQNLGVSVTPIQRIVLSGENGLKIDIHVIIPYEGLSGDQMGQIEKIFKVVYPVDDHHFKVILHYGTLVIDGVTPNMIDYFGRPYEGIAVFDGKKITVTGTLWNGNKIIDERLINPDGSLLFRVTINGVTGWRLCERILAHHHHHH
notes: Control fusion of CD63 and nanoluc reporter lacking ABD, carried on EVs in the assays; His tag of the entry is called optional; also called mCD63-Nluc; control EVs
As for B2, the binding result in experiment [2] is on record as “no binding (tested: 80 µg/ml human serum albumin)”.

B3: hCD9-ABD-2x-Nluc (ABD present in both loops) (other)
chain: MPVKGGTKCIKYLLFGFNFIFWLAGIAVLAIGLWLRFDSQTKSIMHLAEAKVLANRELDKYGVSDFYKRLINKAKTVEGVEALKLHILAALPMHFEQETNNNNSSFYTGVYILIGAGALMMLVGFLGCCGAVQESQCMLGLFFGFLLVIFAIEIAAAIWGYSHKDEVIKEVQEFYKDTYNKLKTKDEPQRETLKAIHYALNCCGLTRQHDEAVDANSLAEAKVLANRELDKYGVSDFYKRLINKAKTVEGVEALKLHILAALPTRAGGVEQFISDICPKKDVLETFTVKSCPDAIKEVFDNKFHIIGAVGIGIAVVMIFGMIFSMILCCAIRRNREMVGSVFTLEDFVGDWRQTAGYNLDQVLEQGGVSSLFQNLGVSVTPIQRIVLSGENGLKIDIHVIIPYEGLSGDQMGQIEKIFKVVYPVDDHHFKVILHYGTLVIDGVTPNMIDYFGRPYEGIAVFDGKKITVTGTLWNGNKIIDERLINPDGSLLFRVTINGVTGWRLCERILA
notes: also called hCD9-ABDX2-Nluc
Consider B3, for which, in experiment [1], the binding result is given as “binds”.

B4: hCD9-ABD-2ndloop-Nluc (other)
chain: MPVKGGTKCIKYLLFGFNFIFWLAGIAVLAIGLWLRFDSQTKSIMHFEQETNNNNSSFYTGVYILIGAGALMMLVGFLGCCGAVQESQCMLGLFFGFLLVIFAIEIAAAIWGYSHKDEVIKEVQEFYKDTYNKLKTKDEPQRETLKAIHYALNCCGLTRQHDEAVDANSLAEAKVLANRELDKYGVSDFYKRLINKAKTVEGVEALKLHILAALPTRAGGVEQFISDICPKKDVLETFTVKSCPDAIKEVFDNKFHIIGAVGIGIAVVMIFGMIFSMILCCAIRRNREMVGSVFTLEDFVGDWRQTAGYNLDQVLEQGGVSSLFQNLGVSVTPIQRIVLSGENGLKIDIHVIIPYEGLSGDQMGQIEKIFKVVYPVDDHHFKVILHYGTLVIDGVTPNMIDYFGRPYEGIAVFDGKKITVTGTLWNGNKIIDERLINPDGSLLFRVTINGVTGWRLCERILA
notes: also called hCD9-ABD 2 nd-Nluc
B4: in experiment [1], the binding result was “binds”.

B5: hCD81-ABD-1stloop-Nluc (other)
chain: MGVEGCTKCIKYLLFVFNFVFWLAGGVILGVALWLRHDPQTTNLLYLEMHLAEAKVLANRELDKYGVSDFYKRLINKAKTVEGVEALKLHILAALPMHLGDKPAPNTFYVGIYILIAVGAVMMFVGFLGCYGAIQESQCLLGTFFTCLVILFACEVAAGIWGFVNKDQIAKDVKQFYDQALQQAVVDDDANNAKAVVKTFHETLDCCGSTRSTLTALTTSVLKNNLCPSGSNIISNLFKEDCHQKIDDLFSGKLYLIGIAAIVVAVIMIFEMILSMVLCCGIRNSSVYGSVFTLEDFVGDWRQTAGYNLDQVLEQGGVSSLFQNLGVSVTPIQRIVLSGENGLKIDIHVIIPYEGLSGDQMGQIEKIFKVVYPVDDHHFKVILHYGTLVIDGVTPNMIDYFGRPYEGIAVFDGKKITVTGTLWNGNKIIDERLINPDGSLLFRVTINGVTGWRLCERILA
notes: also called hCD81-ABD 1 st-Nluc
Turning to B5, the binding result in experiment [1] is “binds”.

B6: mCD63-ABD 2nd loop-NanoLuc (other)
chain: MAVEGGMKCVKFLLYVLLLAFCACAVGLIAIGVAVQVVLKQAMHITHETTAGSLLPVVIIAVGAFLFLVAFVGCCGACKENYCLMITFAIFLSLIMLVEVAVAIAGYVFRDQVKSEFNKSFQQQMQNYLKDNKTATILDKLQKENNCCGATRRTQHDEAVDANSLAEAKVLANRELDKYGVSDFYKRLINKAKTVEGVEALKLHILAALPRTCTSGTRSNYTDWENIPGMAKDRVPDSCCINITVGCGNDFKESTIHTQGCVETIAIWLRKNILLVAAAALGIAFVEVLGIIFSCCLVKSIRSGYEVMGSGSGSGSGSVFTLEDFVGDWRQTAGYNLDQVLEQGGVSSLFQNLGVSVTPIQRIVLSGENGLKIDIHVIIPYEGLSGDQMGQIEKIFKVVYPVDDHHFKVILHYGTLVIDGVTPNMIDYFGRPYEGIAVFDGKKITVTGTLWNGNKIIDERLINPDGSLLFRVTINGVTGWRLCERILAHHHHHH
notes: also called mCD63-ABD-2nd loop Nluc; mCD63-ABD 2nd loop-Nluc
Turning to B6, the binding result with mouse serum albumin is given as “binds”.

B7: hCD9-ABD-1stloop-Nluc (other)
chain: MPVKGGTKCIKYLLFGFNFIFWLAGIAVLAIGLWLRFDSQTKSIMHLAEAKVLANRELDKYGVSDFYKRLINKAKTVEGVEALKLHILAALPMHFEQETNNNNSSFYTGVYILIGAGALMMLVGFLGCCGAVQESQCMLGLFFGFLLVIFAIEIAAAIWGYSHKDEVIKEVQEFYKDTYNKLKTKDEPQRETLKAIHYALNCCGLTRAGGVEQFISDICPKKDVLETFTVKSCPDAIKEVFDNKFHIIGAVGIGIAVVMIFGMIFSMILCCAIRRNREMVGSVFTLEDFVGDWRQTAGYNLDQVLEQGGVSSLFQNLGVSVTPIQRIVLSGENGLKIDIHVIIPYEGLSGDQMGQIEKIFKVVYPVDDHHFKVILHYGTLVIDGVTPNMIDYFGRPYEGIAVFDGKKITVTGTLWNGNKIIDERLINPDGSLLFRVTINGVTGWRLCERILA
notes: also called hCD9-ABD 1 st-Nluc
B7: in experiment [1], the binding result was “binds”.

B8: hCD81-ABD-2ndloop-Nluc (other)
chain: MGVEGCTKCIKYLLFVFNFVFWLAGGVILGVALWLRHDPQTTNLLYLEMHLGDKPAPNTFYVGIYILIAVGAVMMFVGFLGCYGAIQESQCLLGTFFTCLVILFACEVAAGIWGFVNKDQIAKDVKQFYDQALQQAVVDDDANNAKAVVKTFHETLDCCGSTRQHDEAVDANSLAEAKVLANRELDKYGVSDFYKRLINKAKTVEGVEALKLHILAALPTRSTLTALTTSVLKNNLCPSGSNIISNLFKEDCHQKIDDLFSGKLYLIGIAAIVVAVIMIFEMILSMVLCCGIRNSSVYGSVFTLEDFVGDWRQTAGYNLDQVLEQGGVSSLFQNLGVSVTPIQRIVLSGENGLKIDIHVIIPYEGLSGDQMGQIEKIFKVVYPVDDHHFKVILHYGTLVIDGVTPNMIDYFGRPYEGIAVFDGKKITVTGTLWNGNKIIDERLINPDGSLLFRVTINGVTGWRLCERILA
notes: also called hCD81-ABD 2 nd-Nluc
In the case of B8, in experiment [1], the binding result was “binds”.

B9: hCD81-ABD-2x-Nluc (ABD present in both loops) (other)
chain: MGVEGCTKCIKYLLFVFNFVFWLAGGVILGVALWLRHDPQTTNLLYLEMHLAEAKVLANRELDKYGVSDFYKRLINKAKTVEGVEALKLHILAALPMHLGDKPAPNTFYVGIYILIAVGAVMMFVGFLGCYGAIQESQCLLGTFFTCLVILFACEVAAGIWGFVNKDQIAKDVKQFYDQALQQAVVDDDANNAKAVVKTFHETLDCCGSTRQHDEAVDANSLAEAKVLANRELDKYGVSDFYKRLINKAKTVEGVEALKLHILAALPTRSTLTALTTSVLKNNLCPSGSNIISNLFKEDCHQKIDDLFSGKLYLIGIAAIVVAVIMIFEMILSMVLCCGIRNSSVYGSVFTLEDFVGDWRQTAGYNLDQVLEQGGVSSLFQNLGVSVTPIQRIVLSGENGLKIDIHVIIPYEGLSGDQMGQIEKIFKVVYPVDDHHFKVILHYGTLVIDGVTPNMIDYFGRPYEGIAVFDGKKITVTGTLWNGNKIIDERLINPDGSLLFRVTINGVTGWRLCERILA
notes: also called hCD81-ABDX2-Nluc
Regarding B9, the binding result in experiment [1] is on record as “binds”.
